Laboratory results reported in US20090011988A1 (Genentech, published 2009).
Positions of bridges follow the written chain, without caps; N, C: chain ends. No end group written: not given here.

T1: human IGFBP-1 (human, UniProt P08833 26-259)
T1 sequence (looked up): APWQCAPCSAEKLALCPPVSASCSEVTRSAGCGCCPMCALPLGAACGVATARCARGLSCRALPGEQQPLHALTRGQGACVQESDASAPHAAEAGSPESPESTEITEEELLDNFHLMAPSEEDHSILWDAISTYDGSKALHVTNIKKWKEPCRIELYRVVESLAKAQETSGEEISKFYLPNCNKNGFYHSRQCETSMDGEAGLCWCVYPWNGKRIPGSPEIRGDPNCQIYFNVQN

B1: 23D3.1 (peptide)
peptide displayed on M13 phage as a fusion to g8p: FGGWSCQPTWVDVYVCNFEE
modifications: not fully specified (bridges); cysteine pairing not given here; also: displayed on phage coat protein g8
notes: whole phage particle in the assay; also called peptide-phage clone 23D3.1 (g8 display)
B2: 23B3.7 (peptide)
peptide displayed on M13 phage as a fusion to g8p: GDVECIEGPWGELCVWAD
modifications: not fully specified (bridges); cysteine pairing not given here; also: displayed on phage coat protein g8
notes: whole phage particle in the assay; also called peptide-phage clone 23B3.7 (g8 display)
B3: 23D3.4 (peptide)
peptide displayed on M13 phage as a fusion to g8p: AMWVCVSDWETVEECIQYMY
modifications: not fully specified (bridges); cysteine pairing not given here; also: displayed on phage coat protein g8
notes: whole phage particle in the assay; also called peptide-phage clone 23D3.4 (g8 display)
B4: 23D3.3 (peptide)
peptide displayed on M13 phage as a fusion to g8p: AMWVCVSDWETVEECIQYMY
modifications: not fully specified (bridges); cysteine pairing not given here; also: displayed on phage coat protein g8
notes: whole phage particle in the assay; also called peptide-phage clone 23D3.3 (g8 display)
B5: 23D3.2 (peptide)
peptide displayed on M13 phage as a fusion to g8p: AMWVCVSDWETVEECIQYMY
modifications: not fully specified (bridges); cysteine pairing not given here; also: displayed on phage coat protein g8
notes: whole phage particle in the assay; also called peptide-phage clone 23D3.2 (g8 display)
B6: 23D3.6 (peptide)
peptide displayed on M13 phage as a fusion to g8p: TNWFFVCESGHQDICWLAEE
modifications: not fully specified (bridges); cysteine pairing not given here; also: displayed on phage as g8p fusion
notes: whole phage particle in the assay; also called peptide-phage clone 23D3.6 (g8 display)
B7: 23D3.5 (peptide)
peptide displayed on M13 phage as a fusion to g8p: AMWVCVSDWETVEECIQYMY
modifications: not fully specified (bridges); cysteine pairing not given here; also: displayed on phage as g8p fusion
notes: whole phage particle in the assay; also called peptide-phage clone 23D3.5 (g8 display)
B8: 23B3.6 (peptide)
peptide displayed on M13 phage as a fusion to g8p: EVLLCSDGPQLYLCELYA
modifications: not fully specified (bridges); cysteine pairing not given here; also: displayed on phage coat protein g8
notes: whole phage particle in the assay; also called peptide-phage clone 23B3.6 (g8 display)
B9: BP3-40 (peptide)
peptide: Ac-SEEVCWPVAEWYLCN-NH2
modifications: disulfide 5-14
SMILES: CC(=O)N[C@@H](CO)C(=O)N[C@@H](CCC(=O)O)C(=O)N[C@@H](CCC(=O)O)C(=O)N[C@H](C(=O)N[C@H]1CSSC[C@@H](C(=O)N[C@@H](CC(N)=O)C(N)=O)NC(=O)[C@H](CC(C)C)NC(=O)[C@H](Cc2ccc(O)cc2)NC(=O)[C@H](Cc2c[nH]c3ccccc23)NC(=O)[C@H](CCC(=O)O)NC(=O)[C@H](C)NC(=O)[C@H](C(C)C)NC(=O)[C@@H]2CCCN2C(=O)[C@H](Cc2c[nH]c3ccccc23)NC1=O)C(C)C
B10: BP3-39 (peptide)
peptide: SEEVCWPVAEWYLCN-NH2
modifications: disulfide 5-14; N-terminus assumed
SMILES: CC(C)C[C@@H]1NC(=O)[C@H](Cc2ccc(O)cc2)NC(=O)[C@H](Cc2c[nH]c3ccccc23)NC(=O)[C@H](CCC(=O)O)NC(=O)[C@H](C)NC(=O)[C@H](C(C)C)NC(=O)[C@@H]2CCCN2C(=O)[C@H](Cc2c[nH]c3ccccc23)NC(=O)[C@@H](NC(=O)[C@@H](NC(=O)[C@H](CCC(=O)O)NC(=O)[C@H](CCC(=O)O)NC(=O)[C@@H](N)CO)C(C)C)CSSC[C@@H](C(=O)N[C@@H](CC(N)=O)C(N)=O)NC1=O
B11: BP-24 (peptide)
peptide: WFKTVCYEWEDEVQCYTLEEG-NH2
modifications: disulfide 6-15; N-terminus assumed
SMILES: CC(C)C[C@H](NC(=O)[C@@H](NC(=O)[C@H](Cc1ccc(O)cc1)NC(=O)[C@@H]1CSSC[C@H](NC(=O)[C@@H](NC(=O)[C@@H](NC(=O)[C@H](CCCCN)NC(=O)[C@H](Cc2ccccc2)NC(=O)[C@@H](N)Cc2c[nH]c3ccccc23)[C@@H](C)O)C(C)C)C(=O)N[C@@H](Cc2ccc(O)cc2)C(=O)N[C@@H](CCC(=O)O)C(=O)N[C@@H](Cc2c[nH]c3ccccc23)C(=O)N[C@@H](CCC(=O)O)C(=O)N[C@@H](CC(=O)O)C(=O)N[C@@H](CCC(=O)O)C(=O)N[C@@H](C(C)C)C(=O)N[C@@H](CCC(N)=O)C(=O)N1)[C@@H](C)O)C(=O)N[C@@H](CCC(=O)O)C(=O)N[C@@H](CCC(=O)O)C(=O)NCC(N)=O
notes: also called peptide of phage clone 4D3.5
B12: BP-23 (peptide)
peptide: ELDGWVCIKVGEQNLCYLAEG-NH2
modifications: disulfide 7-16; N-terminus assumed
SMILES: CC[C@H](C)[C@@H]1NC(=O)[C@@H](NC(=O)[C@@H](NC(=O)[C@H](Cc2c[nH]c3ccccc23)NC(=O)CNC(=O)[C@H](CC(=O)O)NC(=O)[C@H](CC(C)C)NC(=O)[C@@H](N)CCC(=O)O)C(C)C)CSSC[C@@H](C(=O)N[C@@H](Cc2ccc(O)cc2)C(=O)N[C@@H](CC(C)C)C(=O)N[C@@H](C)C(=O)N[C@@H](CCC(=O)O)C(=O)NCC(N)=O)NC(=O)[C@H](CC(C)C)NC(=O)[C@H](CC(N)=O)NC(=O)[C@H](CCC(N)=O)NC(=O)[C@H](CCC(=O)O)NC(=O)CNC(=O)[C@H](C(C)C)NC(=O)[C@H](CCCCN)NC1=O
notes: also called peptide of phage clone 4C3.2

Each binder was assayed against T2, recombinant human IGFBP-3 (human, UniProt P17936 28-291) (assay: phage ELISA (IGF-blocking phage assay): g8 peptide-phage on an IGFBP-3-coated plate, without and with IGF-1; OD492).
T2 sequence (P17936 28-291 limits assumed): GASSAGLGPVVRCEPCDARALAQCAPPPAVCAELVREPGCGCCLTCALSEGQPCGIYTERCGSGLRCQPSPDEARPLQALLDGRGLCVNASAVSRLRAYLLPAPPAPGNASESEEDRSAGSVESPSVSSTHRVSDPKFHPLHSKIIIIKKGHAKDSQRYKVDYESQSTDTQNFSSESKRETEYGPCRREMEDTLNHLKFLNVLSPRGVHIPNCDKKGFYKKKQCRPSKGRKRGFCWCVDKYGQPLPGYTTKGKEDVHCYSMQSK
Procedure: The plates were then washed ten times, as above, and a solution of rabbit anti-phage antibody mixed with a goat-anti-rabbit conjugate of horseradish peroxidase was added. After an incubation of 1 hour at room temperature, the plates were developed with a chromogenic substrate, o-phenylenediamine (Sigma). The reaction was stopped with addition of ½ volume of 2.5 M H₂SO₄. Optical density at 490 nm was measured on a spectrophotometric plate reader.
In each case, the phagemid clone was grown from a single colony overnight at 37° C. in a culture volume of 5 ml. The phage particles were prepared as described above.
B1: binds. B2: binds. B3: binds. B4: binds. B5: binds. B6: binds. B7: binds. B8: binds.

What follows are binders tested against T2, recombinant human IGFBP-3 (assay: BIAcore competition, IGFBP-3 to IGF-1).
Procedure: (§1) IGF-1 was immobilized on a dextran chip for inhibition assays using a BIACORE™ 2000 surface-plasmon-resonance device (BIAcore, Inc., Piscataway, N.J.) to measure free binding protein. IGF-1 was biotinylated as described above, and injected over a chip to which streptavidin had been coupled (BIAcore, Inc.) to give 400 to 800 RU (response units) of immobilized IGF-1. […] After incubation for >1 hour at room temperature, an aliquot of 20:L was injected at a flow rate of 20:L/min over the IGF-1 chip.
GPETCWPVAEWYLCN (disulfide 5-14) [BP3-41] gave an IC50 of 4 µM. EVCWPVAEWYLCN (disulfide 3-12) [BP3-27] gave an IC50 of 2.8 µM. With WPVAEWYLCN (only one Cys, no intact disulfide) [BP3-24] the IC50 was greater than 1000 µM. In the case of ASEEVCWPVAEWYLCN (disulfide 6-15) [BP3-30], the IC50 is reported as 5.6 µM. Binder B9 has an IC50 of 0.66 µM. B10 gave an IC50 of 0.66 µM. Binder CWPVAEWYLCN (disulfide 1-10) [BP3-25] has an IC50 of 46 µM. ASEEVCWPVAEWYLCNMWGR (disulfide 6-15) [4D3.3P] gave an IC50 of 5.6 µM. EEVCWPVAEWYLCN (disulfide 4-13) [BP3-28] was tested, and the IC50 was 5.4 µM.

These binders were tested against T1, human IGFBP-1 (assay: BIAcore inhibition assay).
Procedure: Peptides were assayed in a BIAcore™ assay as described in WO 98/45427, supra.
In the case of Ac-CRAGPLQELCEKYAE (disulfide 1-10 (inferred); linker 8-15 via 1,5‑diaminopentane) [(i+7)A], the “fold potency reduction, IC50 (BP1-01)/IC50 (mut)” value is reported as 40. With Ac-PLEWLAEKYEG (linker 3-10 via 1,5‑diaminopentane) [(i+7)C] the “fold potency reduction, IC50 (BP1-01)/IC50 (mut)” value was 20.

The binders below were run against T2, recombinant human IGFBP-3 (assay: BIAcore competition, IGFBP-3 to immobilized IGF-1).
Procedure: as §1, with “chip. […]” for “chip.”
VCWPVAEWYLCNMWG (disulfide 2-11) [BP3-16] showed an IC50 of 30 µM. Work on VAWEVCWDRHDQGYICTTDS (disulfide 6-16) [BP3-4D3.11] yielded an IC50 of less than 10 µM. In the case of TGVDCQCGPVHCVCMDWA (disulfide 7-12; disulfide 5-14 (inferred)) [BP3-06], the IC50 is reported as 5 µM. With B11 the IC50 was 100 to 300 µM. For DMGVCADGPWMYVCEWTE (disulfide 5-14) [BP3-02-ox], the IC50 was 12 µM. B12 was tested, and the IC50 was 220 µM. Work on TVANCDCYMPLCLCYDSD (disulfide 7-12; disulfide 5-14 (inferred)) [BP3-08] yielded an IC50 of 15 µM. Work on EESECFEGPGYVICGLVG (disulfide 5-14) [BP3-4B3.3] yielded an IC50 of 80 µM. AWEVCWDRHQGYICTTDS (disulfide 5-14) [BP3-4D3.11DEL] showed an IC50 of 80 µM.
